Reference: US20140072563A1 (Regeneron, published 2014)

T1: hErbB3.mFc (soluble dimeric human ErbB3 extracellular domain fused to mouse Fc) (human)
T1 construct: called dimeric
T1 chain: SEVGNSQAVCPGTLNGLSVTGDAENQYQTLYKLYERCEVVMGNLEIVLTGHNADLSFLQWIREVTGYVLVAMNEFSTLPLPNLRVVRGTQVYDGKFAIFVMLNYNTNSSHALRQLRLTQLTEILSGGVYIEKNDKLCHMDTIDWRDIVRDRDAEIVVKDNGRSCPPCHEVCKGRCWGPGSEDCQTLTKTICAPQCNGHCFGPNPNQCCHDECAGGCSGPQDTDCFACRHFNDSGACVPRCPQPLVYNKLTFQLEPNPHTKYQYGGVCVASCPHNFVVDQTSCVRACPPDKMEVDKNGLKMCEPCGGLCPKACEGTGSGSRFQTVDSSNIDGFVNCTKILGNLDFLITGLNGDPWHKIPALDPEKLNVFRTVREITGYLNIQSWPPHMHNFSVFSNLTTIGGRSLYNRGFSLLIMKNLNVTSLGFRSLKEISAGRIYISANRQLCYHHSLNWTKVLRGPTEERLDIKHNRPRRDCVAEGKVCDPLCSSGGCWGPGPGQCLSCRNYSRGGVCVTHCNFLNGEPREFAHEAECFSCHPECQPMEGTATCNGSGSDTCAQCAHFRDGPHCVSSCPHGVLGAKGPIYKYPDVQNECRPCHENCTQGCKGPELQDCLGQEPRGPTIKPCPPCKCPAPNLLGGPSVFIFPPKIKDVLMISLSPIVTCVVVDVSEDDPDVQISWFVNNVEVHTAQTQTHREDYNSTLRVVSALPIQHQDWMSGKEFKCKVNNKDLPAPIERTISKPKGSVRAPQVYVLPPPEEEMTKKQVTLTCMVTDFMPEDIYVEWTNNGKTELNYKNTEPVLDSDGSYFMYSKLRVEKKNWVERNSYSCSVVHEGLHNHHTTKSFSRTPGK


Experiments:
[1] = molecular target: hErbB3.mmh (soluble monomeric human ErbB3 extracellular domain with C-terminal myc-myc-hexahistidine tag) (human, UniProt P21860 20-642); test: SPR (Biacore), 25 C, mAb capture format
Method: (§1) (Tables 2-4). Measurements were conducted on a Biacore 2000 or T100 instrument. […] Kinetic association (kₐ) and dissociation (kd) rate constants were determined by processing and fitting the data to a 1:1 binding model using Scrubber 2.0 curve fitting software.

[2] = molecular target: T1, hErbB3.mFc (soluble dimeric human ErbB3 …); test: SPR (Biacore), 25 C, mAb capture format
Method: as §1

| Binder | Kd [1] [pM] | T½ [1] [h] | koff [1] [s⁻¹] | kon [1] [M⁻¹ s⁻¹] | Kd [2] [pM] | T½ [2] [h] | koff [2] [s⁻¹] | kon [2] [M⁻¹ s⁻¹] |
| --- | --- | --- | --- | --- | --- | --- | --- | --- |
| H4H2098P (antibody, V domains shown, Fully human, human IgG4 Fc (H4H prefix)) VH: QVQLVESGGGVVQPGRSLRLSCAASGFTFSSFGMHWVRQAPGKGLEWVAVIWYVEINKYHADSVKGRFTISRDDSKNTVYLQMNSLRAEDTAVYYCARDWNDGDYGMDVWGQGTTVTVSS VL: DIQLTQSPSFLSASVGDRVTITCWASQGISSFLAWYQQKAGKAPRLLIYAASTLQTGVPSRFSGSGSGTEFTLTISSLQPGDFATYHCQQLNSYPYTFGQGTKLEIKR | 69 | 2.25 | 7.89e-05 | 1.14e+06 | 4.06 | 19.8 | 8.97e-06 | 2.21e+06 |
| H4H2108P (antibody, V domains shown, Fully human, human IgG4 Fc (H4H prefix)) VH: EVQLLESGGDLVQPGGSLRLSCATSGFSFSSDAMNWVRQAPGKGLEWVSGISGSGGNTYYADSVKGRFTISRDISKSTLSLQMNSLRAEDTAVYYCAKEGTNMVRGVVMEDNGMDVWGQGTTVTVSA VL: DIQMTQSPSSVSASVGDRVTITCRASQGISDYLAWYQQKPGKAPKLLIYAASSLQSGVPSRFSGRGSGTDFTLTISTLQPEDFATYYCQQANSFPLTFGGGTKVDIKR | 41.8 | 2.18 | 8.13e-05 | 1.95e+06 | 1.46 | 41 | 4.33e-06 | 2.96e+06 |
| H4H2146P (antibody, V domains shown, Fully human, human IgG4 Fc (H4H prefix)) VH: QVQLVESGGGVVQPGRSLRLSCAASGFTFINYGIHWVRQGPGKGLEWVAVIWYDGSNEWYADSVKGRFTISRDNSKNTVYLEMNKLRAEDTAVYYCAREEEDYGMDVWGQGTTVTVSS VL: not shown | 12.4 | 5.13 | 3.46e-05 | 2.79e+06 | 0.435 | 89.9 | 1.98e-06 | 4.54e+06 |
| H4H2092P (antibody, V domains shown, Fully human, human IgG4 Fc (H4H prefix)) VH: EVQLVESGGGVVRPGGSLRLSCAASGFTFEDYGMNWVRQVPGKGLEWVSGTNWNGGITGYTGSVKGRFTISRDNAKNSLYLQMNSLRAEDTALYHCARDSGDQDAFDIWGQGTMVTVSS VL: DIQLTQSPSFLSASVGDRVTITCWASQDISSYLAWYQQKPGKAPKLLIYAASTFQSGVPSRFSGSGSGTEFTLTISNLQPEDFATYYCQQLDSYPLSFGGGTKVEIKR | 27.8 | 1.72 | 0.000103 | 3.72e+06 | 1.45 | 23.8 | 7.46e-06 | 5.16e+06 |
| H4H2143P (antibody, V domains shown, Fully human, human IgG4 Fc (H4H prefix)) VH: EVQLVESGGGLVQPGRSLRLSCAASGFTFGDYAMHWVRQAPGKGLEWVSGINLNSGTIGYADSVKGRFTISRDNAKNSLYLQMNSLRAEDTAFYYCAKDIDGYYHYAMDVWGQGTTVTVSS VL: DVVMTQSPSFLSASVGDRVTITCWASQGISSYLAWYQQKPGKAPKLLIYDASTLESGVPSRFSGSGSGTEFTLTISNLQPEDFATYYCQQVNSYPLTFGGGTKVEIKR | 53.1 | 1.82 | 9.73e-05 | 1.83e+06 | 1.75 | 38.4 | 4.63e-06 | 2.86e+06 |
| H4H2102P (antibody, V domains shown, Fully human, human IgG4 Fc (H4H prefix)) VH: EVQLVESGGGLVQPGGSLRLSCAASGFTFSNYDIHWVRQATGKGLEWVSAIGPAGDTYYSDSVKGRFTISREDAKNSLYLQMSSLRAGDTAVYYCASEGIAVRPDDYYGMDVWGQGTTVTVSA VL: DIQLTQSPSFLSASVGDRVTITCWASQDITSYLAWYQKKPGKAPKLLIYAASTLQSGVPSRFSGSGSGTEFTLTISSLQPEDFAAYYCQQLNSYPLTFGGGTKVDIKR | 55.1 | 3.63 | 4.88e-05 | 886000 | 1.43 | 78.7 | 2.26e-06 | 1.58e+06 |
| H4H2147P (antibody, V domains shown, Fully human, human IgG4 Fc (H4H prefix)) VH: QVQLVESGGGLVKPGGSLRLSCAASGFTFSDFNMGWIRQAPGKGLEWVSHISGSGNVIYYADSVKGRFAISRDNGKNSLYLQVNSLRAEDTAVYYCARDIGDSDAFDIWGQGTMVTVSS VL: DIQLTQSPSFLSASVGDRVTITCWASQDISSYLAWYQQKPGKAPKLLIYGASTLESGVPSRFSGSGSGTEFTLTISSLQPEDVATYYCQQLNTYPLTFGGGTKVEIKR | 43.8 | 1.63 | 0.000108 | 2.47e+06 | 1.5 | 38.8 | 4.58e-06 | 3.33e+06 |
| H4H2111P (antibody, V domains shown, Fully human, human IgG4 Fc (H4H prefix)) VH: QVQLVESGGGVVQPGRSLRLSCAASGFTFNNYGMHWVRQAPGKGLAWVAVMWYSESHKYYADSVKGRFTISRDNSKNTLYLEMNSLRVEDTAIYYCARDLGDPDAFDIWGQGTMVTVSS VL: DIQLTQSPSFLSASVGDRVTITCWASQGISSYLAWYQQKPGKAPKLLIYGASTLQSGVPSRFSGSGSGTEFTLTISSLQPEDFATYYCQQLNSYPLTFGGGTKVEIKR | 53.1 | 1.52 | 0.000118 | 2.21e+06 | 2.49 | 20.4 | 8.69e-06 | 3.5e+06 |
| H4H2140P (antibody, V domains shown, Fully human, human IgG4 Fc (H4H prefix)) VH: EVQLVESGGGLVQPGGSLRLSCAASGFSVSYYDMHWVRQVTGKGLEWVSAIGPAGDTYYPGSVKGRFTISREDATNSLYLQIHSLGAGDTAVYYCAREGAIAARPDDYYGMDVWGQGTTVTVSS VL: DIQLTQSPSFLSASVGDRVTITCWASQDISSYLAWYQQKPGKAPKLLIYAASTLQSGVPSRFSGSGSGTEFTLTISSLQPEDFATYYCQQLNSYPLTFGGGTKVEIKR | 19.8 | 5.43 | 3.27e-05 | 1.66e+06 | 0.393 | 180 | 9.86e-07 | 2.51e+06 |
| H4H2094P (antibody, V domains shown, Fully human, human IgG4 Fc (H4H prefix)) VH: EVQLVESGGGLVQPGGSLRLSCAASGFTFSSYDMHWVRQATGKGLEWVSAIGPAGDTYYPVSAMGRFTISRDDAKNSLYLQMNSLRAGDTAVYYCAREGVTIRPDDYFGLDVWGQGTTVTVSA VL: DIQLTQSPSFLSASVGDRVTITCWASQGISDYLAWYQKKPGKAPQLLIYAATTLQSGVPSRFSGSGSGTEFTLTISSLQPEDFATYYCQQLNTYPLTFGGGTKVEIKR | 7.22 | 13 | 1.37e-05 | 1.89e+06 | 0.452 | 130 | 1.37e-06 | 3.03e+06 |
| H4H2138P (antibody, V domains shown, Fully human, human IgG4 Fc (H4H prefix)) VH: QVQLQESGPGLVKPSQTLSLTCTVSGGSINSGGYYWSWIRQHPGKGLEWIGYISYSGNTNYNPSLKSRVTISVDTSKNQFSLTLTSVTAADTAVYYCARDSDVDTGLVDGFDVWGQGTMVTVSS VL: DIVMTQSPSSVSASVGDRVTITCRASQGVSSWLAWYQQKPGKAPKLLIYTTSSLQSGVPSRFSGSGSGTDFTLTISSLQPEDFATYYCQQSNSFPFTFGPGTKVEIK | 20.9 | 3.55 | 5.01e-05 | 2.39e+06 | 1.47 | 32.5 | 5.46e-06 | 3.71e+06 |
| H4H2132P (antibody, V domains shown, Fully human, human IgG4 Fc (H4H prefix)) VH: EVQLVESGGGVVRPGGSLRLSCAASGFTFDDYGMSWVRQFPGKGLEWVSSIDGNGGNTGYSDSVKGRFTISRDNAKNSLHLQMNSLRAEDTALYHCARDPDYDSVWGNYRPFDYWGQGTLVTVSS VL: DIVMTQSPDSLAVSLGERATINCKSSQSVLSSSNDNNYLAWFQQKPGQPPNLLIYWASTRDSGVPDRFSASGSGTDFTLAISSLQAEDVAVYYCHQYYSSPPTFGQGTKVEIKR | 17.7 | 4.65 | 3.81e-05 | 2.16e+06 | 0.958 | 53 | 3.35e-06 | 3.49e+06 |
| H4H2084P (antibody, V domains shown, Fully human, human IgG4 Fc (H4H prefix)) VH: QVQLVESGGGVVQSGKSLRLSCVASGFTFSNYGMHWVRQTPGKGLEWVARIWFDGTNKYYTDSVKGRFTLSRDSSKNTLYLQMNSLRAEDTAVYFCAREESLELDHYVMDVWGQGTTVTVSS VL: AIQMTQSPSSLSASVGDRVTITCRASQDIRDDLGWFQQKPGKAPNLLIYAASSLQSGVPSRFSGSGSGTDFTLTISSLQPEDFATYYCLQDYNYPLTFGGGTKVEIKR | 23.9 | 2.98 | 5.96e-05 | 2.49e+06 | 1.03 | 44.9 | 3.95e-06 | 3.83e+06 |
| H4H2114P (antibody, V domains shown, Fully human, human IgG4 Fc (H4H prefix)) VH: QVQLVESGGGVVQPGRSLRLSCAASGFTFSSYGMHWVRQAPGKGLEWVAGMSYDGSSKYYEDSVKGRFTISRDNSKNTLNLQMNSLRVEDTAVYYCAKERDYVEYVDSYYGMDVWGQGTTVTVSA VL: AIQMTQSPSSLSASVGDRVTITCRASQGIRNDLGWYQQKPGKAPKVLIYAASSLQSGVPSRFSGSGSGTVFTLTISSLQPEDFATYYCLQDYNYPLTFGGGTKVEIKR | 106 | 1.8 | 9.88e-05 | 929000 | 5.41 | 22.2 | 7.98e-06 | 1.48e+06 |
